This is an account of results in paper PMC8902617, “A lysine-rich cluster in the N-BAR domain of ARF GTPase-activating protein ASAP1 is necessary for binding and bundling actin filaments” (The Journal of Biological Chemistry, 2022).

B1: ASAP1 BAR-PH (residues 1-431), His6-tagged, wild type (domain or fragment)
chain: not shown
notes: ASAP1, BAR-PH tandem, residues 1-431; also called ASAP1-BAR-PH-His6; WT BAR-PH; source: E. coli LOBSTR (DE3) RIL or BL21 (DE3), purified (Ni-NTA or HisTrap; buffer exchange or Sephacryl S100)
B2: Q72E ASAP1-BAR-PH-His6 single mutant (domain or fragment)
chain: not shown
notes: ASAP1, BAR-PH tandem, residues 1-431; Mutant of m2; source: E. coli LOBSTR (DE3) RIL or BL21 (DE3), purified (Ni-NTA or HisTrap; buffer exchange or Sephacryl S100)
B3: [K283E, K284E] ASAP1-BAR-PH-His6 (domain or fragment)
chain: not shown
notes: as for B2
B4: [Q72E, Y82F, N83D] ASAP1-BAR-PH-His6 (domain or fragment)
chain: not shown
notes: as for B2
B5: [K283A, K284A] ASAP1-BAR-PH-His6 (domain or fragment)
chain: not shown
notes: as for B2
B6: [Q72A, Y82A, N83A] ASAP1-BAR-PH-His6 (domain or fragment)
chain: not shown
notes: ASAP1, BAR-PH tandem, residues 1-431; Mutant of m2; the text prints [Q72A, Y82A, N83A] throughout; also called cluster 1b Ala triple mutant; source: E. coli LOBSTR (DE3) RIL or BL21 (DE3), purified (Ni-NTA or HisTrap; buffer exchange or Sephacryl S100)
B7: [K229A, K231A, K232A] ASAP1-BAR-PH-His6 (domain or fragment)
chain: not shown
notes: as for B2
B8: ASAP2 BAR-PH (aa 1-397) (domain or fragment)
chain: not shown
notes: ASAP2, BAR-PH tandem, residues 1-397; source: E. coli LOBSTR (DE3) RIL or BL21 (DE3), purified (Ni-NTA or HisTrap; buffer exchange or Sephacryl S100)
B9: ASAP3 BAR-PH (aa 1-394) (domain or fragment)
chain: MPEQFSVAEFLAVTAEDLSSPAGAAAFAAKMPRYRGAALAREEILEGDQAILQRIKKAVRAIHSSGLGHVENEEQYREAVESLGNSHLSQNSHELSTGFLNLAVFTREVAALFKNLIQNLNNIVSFPLDSLMKGQLRDGRQDSKKQLEKAWKDYEAKMAKLEKERDRARVTGGIPGEVAQDMQRERRIFQLHMCEYLLKAGESQMKQGPDFLQSLIKFFHAQHNFFQDGWKAAQSLFPFIEKLAASVHALHQAQEDELQKLTQLRDSLRGTLQLESREEHLSRKNSGCGYSIHQHQGNKQFGTEKVGFLYKKSDGIRRVWQKRKCGVKYGCLTISHSTINRPPVKLTLLTCQVRPNPEEKKCFDLVTHNRTYHFQAEDEHECEAWVSVLQNSKD
notes: ASAP3, BAR-PH tandem, residues 1-394; source: E. coli LOBSTR (DE3) RIL or BL21 (DE3), purified (Ni-NTA or HisTrap; buffer exchange or Sephacryl S100)

In the experiment the target is filamentous actin (rabbit skeletal muscle actin) (rabbit, UniProt P68135 1-377). In words: co-sedimentation; high-speed actin cosedimentation: test protein (2 μM) with F-actin (0-25 μM) in F-actin buffer (5 mM Hepes pH 8.0, 100 mM KCl, 2 mM MgCl2, 0.2 mM CaCl2, 1 mM ATP, 1 mM DTT) for 30 min, 150,000g for 90 min at 24 °C and/or 4 °C; supernatant and pellet on SDS-PAGE, % test protein in the pellet (ACAP1 also by anti-His6 immunoblot). The settings on record: both partners purified. A general note: In western blotting, separated proteins are transferred to a membrane and probed.
For orientation: EC50 means the midpoint of the concentration-response curve. On to B1, for which the EC50 was ~1 µM.
For the molecule B2, the binding result is on record as “binds”.
On the same count and under the same terms, the value for B3 was “binds”; that for B4 was “binds”.
The same measure, in the same setting: then B5, with “binds”; and B6, with “binds”.
Still for that read-out and setting: then B7, with “binds”.
Take B8: the EC50 was ~4 µM.
The same measure, in the same setting: then B9, with ~1 µM.
